US20260234242A1 (HAINAN SIMCERE ZAIMING PHARMACEUTICAL, published 2026)

T1: human CDH6 with EC2 removed, on HEK293T cells (HEK293T-hCDH6-EC2 deletion) (human, UniProt P55285 54-790)
T1 construct: Signal peptide not removed here
T1 sequence: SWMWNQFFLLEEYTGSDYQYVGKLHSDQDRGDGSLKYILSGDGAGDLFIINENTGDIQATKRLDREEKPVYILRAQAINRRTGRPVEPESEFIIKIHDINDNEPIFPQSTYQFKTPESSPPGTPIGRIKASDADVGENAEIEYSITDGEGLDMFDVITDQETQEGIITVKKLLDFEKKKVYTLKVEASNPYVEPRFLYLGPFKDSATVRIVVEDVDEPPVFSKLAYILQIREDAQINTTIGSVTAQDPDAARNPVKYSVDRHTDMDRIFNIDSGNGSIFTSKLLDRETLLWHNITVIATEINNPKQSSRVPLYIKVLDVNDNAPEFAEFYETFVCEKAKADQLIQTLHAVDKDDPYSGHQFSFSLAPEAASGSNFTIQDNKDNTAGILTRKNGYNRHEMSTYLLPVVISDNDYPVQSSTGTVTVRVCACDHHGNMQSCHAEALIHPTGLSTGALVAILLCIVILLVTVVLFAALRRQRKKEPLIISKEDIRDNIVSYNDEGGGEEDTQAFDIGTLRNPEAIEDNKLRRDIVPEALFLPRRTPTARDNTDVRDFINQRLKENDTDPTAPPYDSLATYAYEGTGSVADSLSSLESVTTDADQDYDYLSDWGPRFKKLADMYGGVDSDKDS

T2: human CDH6 with EC1 removed, on HEK293T cells (HEK293T-hCDH6-EC1 deletion) (human, UniProt P55285 160-790)
T2 construct: Signal peptide not removed here
T2 sequence: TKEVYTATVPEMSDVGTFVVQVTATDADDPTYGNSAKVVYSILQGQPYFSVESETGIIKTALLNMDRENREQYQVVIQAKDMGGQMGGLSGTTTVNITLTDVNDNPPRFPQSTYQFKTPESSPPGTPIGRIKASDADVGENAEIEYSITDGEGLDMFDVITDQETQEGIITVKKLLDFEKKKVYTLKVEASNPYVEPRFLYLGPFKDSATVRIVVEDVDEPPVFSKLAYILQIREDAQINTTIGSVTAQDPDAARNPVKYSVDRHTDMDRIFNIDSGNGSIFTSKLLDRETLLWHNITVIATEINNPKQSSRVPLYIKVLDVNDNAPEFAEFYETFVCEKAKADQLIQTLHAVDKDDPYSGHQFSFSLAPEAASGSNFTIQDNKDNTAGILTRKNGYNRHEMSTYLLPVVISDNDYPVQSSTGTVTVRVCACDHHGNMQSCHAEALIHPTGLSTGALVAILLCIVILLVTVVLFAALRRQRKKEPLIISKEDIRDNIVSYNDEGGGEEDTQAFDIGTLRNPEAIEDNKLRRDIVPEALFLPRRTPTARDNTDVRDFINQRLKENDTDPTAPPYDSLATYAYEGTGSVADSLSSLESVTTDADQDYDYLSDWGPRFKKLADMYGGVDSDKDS

T3: human CDH6 with EC3 removed, on HEK293T cells (HEK293T-hCDH6-EC3 deletion) (human, UniProt P55285 54-790)
T3 construct: Signal peptide not removed here
T3 sequence: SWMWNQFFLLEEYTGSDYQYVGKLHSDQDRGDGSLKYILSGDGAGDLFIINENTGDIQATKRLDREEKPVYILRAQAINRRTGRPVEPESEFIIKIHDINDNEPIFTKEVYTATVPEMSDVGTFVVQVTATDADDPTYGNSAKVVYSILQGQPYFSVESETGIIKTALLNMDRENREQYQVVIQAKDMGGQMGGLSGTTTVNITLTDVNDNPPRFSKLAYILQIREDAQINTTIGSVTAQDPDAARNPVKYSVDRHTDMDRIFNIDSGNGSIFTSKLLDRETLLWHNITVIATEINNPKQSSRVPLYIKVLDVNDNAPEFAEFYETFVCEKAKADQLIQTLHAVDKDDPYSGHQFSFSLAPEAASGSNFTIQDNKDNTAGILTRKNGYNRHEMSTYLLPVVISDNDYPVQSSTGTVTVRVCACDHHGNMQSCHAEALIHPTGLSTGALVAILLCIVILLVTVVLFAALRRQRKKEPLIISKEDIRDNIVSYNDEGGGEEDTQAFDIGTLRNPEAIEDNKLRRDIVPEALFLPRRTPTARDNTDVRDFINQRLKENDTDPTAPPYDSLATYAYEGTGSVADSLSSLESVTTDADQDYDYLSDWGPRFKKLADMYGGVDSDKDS

B1: CHI-CDH6-1 (antibody, human IgG1, kappa, V domains shown)
VH: QVQLQQPGAELVRPGSSVKLSCKASGYTFTNYWMHWVKQRPIEGLEWIGDIDPSHSETHYTQKFKDKATLTVDKSSSTAYMQLSSLTSEDSAVYYCARGDLGRFDYWGQGTTLTVSS
VL: DIVLTQSPASLAVSLGQRATISCRASESVSIHGTHLMHWYQQKSGQPPKLLIYAASNLESGVPARFSGSGSETDFTFNIHPVEEEDAATYFCQQSFEDPWTFGGGTKLEIKR
notes: also called CHI-hCDH6-1; CH1-CDH6-1
B2: CHI-CDH6-3 (antibody, human IgG1, kappa, V domains shown)
VH: QVQLQQPGAELVKPGASVKLSCKASGYTFTSYWIHWVKQRPGQGLEWIGEINPSNGVTNCNENFKSKATLTVDKSSSTAYMQLSSLTSEDSAVYYCTIPNLLWWYFDVWGAGTTVTVSS
VL: DIQMTQSPASLSVSVGETVTITCRASENIYSNLAWYQQKQGKSPQLLVYEATNLADGVPSRFSGSGSGTQYSLKINSLQSEDFGSYYCQHFWGTLWTFGGGTKLEIKR
notes: also called CH1-CDH6-3; chimeric antibody of murine CDH6-3
B3: CHI-CDH6-4 (antibody, human IgG1, kappa, V domains shown)
VH: QVQLQQSGPELVKPGASVKISCKASGYAFSNFWMNWVKQRPGKGLEWIGWIYPGDGDTNYNGKFKDKATLTADKSSSTAYIQLSSLTSEDSAVYFCARLYDAWGFFDYWGQGTTLTVSS
VL: QIVLTQSPAIMSASPGQKVTITCSASSSVNYMHWYQQKLGSSPKLWIYDKSKLAPGVPARFSGSGSGTSYSLTISSMEAEDAASYFCHQWSSYPPMTFGGGTKLEIKR
notes: also called CH1-CDH6-4; chimeric antibody of murine CDH6-4
B4: CHI-CDH6-5 (antibody, human IgG1, kappa, V domains shown)
VH: QVQLQQSGAELVRPGTSVKMSCKAAEYTFTNYWIGWVKQRPGHGLEWIGDLYPGGDHANYNEKFEGKATLTADTSSSTAYMQLSSLTSEDSAIYYCARGMLTTGFDSWGQGTTLTVSS
VL: DIVMSQSPSSLAVSAGEKVTMSCKSSQSLFNSRTRKNYLAWYQQKPGQSPKLLIYWASTRESGVPDRFTGSGSGTDFTLTISSVQAEDLAVYYCKQSYYLRTFGGGTKLEIKR
notes: also called CH1-CDH6-5; chimeric antibody of murine CDH6-5
B5: CHI-CDH6-7 (antibody, human IgG1, kappa, V domains shown)
VH: EVKLVESGGGLVKPGGSLKVSCAASGFTFSDHGMAWVRQAPGKGPEWVAFISNLAYSIYYADTVTGRFTISRENAKNTLYLEMSSLRSEDTAMYYCARVYVKWYFDVWGAGTTVTVSS
VL: DIQMTQSPASLSASVGETVTITCRASENIDSYLAWYQQKQGKSPQLLVFAATLLADGVPSRFSGSGSGTQYSLKINSLQSEDVARYYCQHYYSTPLTFGAGTKLELKR
notes: also called CH1-CDH6-7; chimeric antibody of murine CDH6-7
B6: CHI-CDH6-12 (antibody, human IgG1, kappa, V domains shown)
VH: EVNLVESGGGLVQPGDSLTLSCSASGFTFTDYYMSWVRQFPGKALEWLALIRNKANSYTTEYSASVKGRFTISRDNSQSILYLQMNALRAEDSATYYCARDSYYSHDGFAYWGQGTLVTVSA
VL: DIVLTQSPASLAVSLGQRATISCRASKSVSTSSYTYMHWYQQKPGQPPKLLIKFASYLESGVPARFSGSGSGTDFTLNIHPVEEEDAATYYCQHSREFPFTFGTGTKLEIKR
notes: also called CH1-CDH6-12; chimeric antibody of murine CDH6-12
B7: CHI-CDH6-14 (antibody, human IgG1, kappa, V domains shown)
VH: QIQLQQSGPELVKPGTSVKISCKASGYTFTDNYINWVRQRPGQGLEWIGWIYPGTGNSYYNEKFKGKATLTVDTSSSTAYMQFSSLTSEDSAVYLCASSYGDSFDYWGQGTTLTVSS
VL: DIQMTQTTSSLSASLGNRVTISCRASQDIRNYLNWYQQKPDGTFKLLISYTSRLHSGVPSRFSGSGSGTDYSLTVSNLEPEDIATYYCQQYSQLPWTFGGGSRLEIKR
notes: also called CHI-hCDH6-14; CH1-CDH6-14
B8: DS-H01L02 (antibody, human IgG1, kappa, V domains shown)
VH: EVQLVQSGAEVKKPGASVKVSCKASGYTFTRNFMHWVRQAPGQGLEWMGWIYPGDGETEYAQKFQGRVTITADTSTSTAYMELSSLRSEDTAVYYCARGVYGGFAGGYFDFWGQGTLVTVSS
VL: DIQMTQSPSSLSASVGDRVTITCKASQNIYKNLAWYQQKPGKAPKLLIYDANTLQTGVPSRFSGSGSGSDFTLTISSLQPEDFATYFCQQYYSGWAFGQGTKVEIKR
notes: Positive control, variable regions from WO2018212136A1; also called positive control anti-human CDH6 antibody
B9: NOV0712 (antibody, human IgG1, kappa, V domains shown)
VH: QVQLLESGGGLVQPGGSLRLSCAASGFTFSSHGMHWVRQAPGKGLEWVSVISGSGSNTGYADSVKGRFTISRDNSKNTLYLQMNSLRAEDTAVYYCARQWGSYAFDSWGQGTLVTVSS
VL: DIQMTQSPSSLSASVGDRVTITCRASQSISSYLNWYQQKPGKAPKLLIYAVSTLQSGVPSRFSGSGSGTDFTLTISSLQPEDFATYYCQQSGTFPPTTFGQGTKVEIKR
notes: as for B8

What follows are binders tested against T1, human CDH6 with EC2 removed, on HEK293T … (assay: FACS, HEK293T-hCDH6-EC2 deletion cells).

Binder | Max MFI [MFI]
B1 | 51300
B2 | 7550
B3 | 75
B4 | 343
B5 | 13000
B6 | 11000
B7 | 814
B8 | 8390
B9 | 39100

What follows are binders tested against T2, human CDH6 with EC1 removed, on HEK293T … (assay: FACS, HEK293T-hCDH6-EC1 deletion cells).

Binder | Max MFI [MFI]
B1 | 84
B2 | 11100
B3 | 10200
B4 | 112
B5 | 88
B6 | 9860
B7 | 7210
B8 | 5290
B9 | 23600

What follows are binders tested against T3, human CDH6 with EC3 removed, on HEK293T … (assay: FACS, HEK293T-hCDH6-EC3 deletion cells).
Excerpt: To confirm the binding epitope of the CDH6 antibody, the sequences after removal of these 5 regions were constructed into pcDNA3.1 vectors (purchased from Youbio, Cat. No. VT1001), and transfected into HEK293T cells (purchased from Cell Bank of Chinese Academy of Sciences, Cat. No. SCSP-502) to obtain 5 CDH6 truncated cell lines: HEK293T-hCDH6-EC1 deletion, HEK293T-hCDH6-EC2 deletion, HEK293T-hCDH6-EC3 deletion, HEK293T-hCDH6-EC4 deletion, and HEK293T-hCDH6-EC5 deletion.
The binding activity of the CDH6 chimeric antibodies to these 5 cell lines was assayed by FACS.

Binder | Max MFI [MFI] | binding result
B1 | 18000 | 
B2 | 689 | 
B3 | 15100 | 
B4 | 12200 | 
B5 | 9060 | 
B6 | 70 | 
B7 | 755 | 
B8 |  | no binding (tested: MFI ~1.5 times that of hIgG1 (65))
B9 | 16300 | 
